The values that follow come from US11597760 (dated 2023).

Assay [1] addresses human C5 (human). Description: SPR, pH 7.4, 37C. (In general: In SPR one partner is held on a chip, and binding of the other changes the refractive index at the surface.)
Assay [2] deals with human C5 (human). Description: SPR, pH 5.8, 37C.
For the next assay, the target named is T1, cynomolgus C5 (cynomolgus monkey).
T1 chain: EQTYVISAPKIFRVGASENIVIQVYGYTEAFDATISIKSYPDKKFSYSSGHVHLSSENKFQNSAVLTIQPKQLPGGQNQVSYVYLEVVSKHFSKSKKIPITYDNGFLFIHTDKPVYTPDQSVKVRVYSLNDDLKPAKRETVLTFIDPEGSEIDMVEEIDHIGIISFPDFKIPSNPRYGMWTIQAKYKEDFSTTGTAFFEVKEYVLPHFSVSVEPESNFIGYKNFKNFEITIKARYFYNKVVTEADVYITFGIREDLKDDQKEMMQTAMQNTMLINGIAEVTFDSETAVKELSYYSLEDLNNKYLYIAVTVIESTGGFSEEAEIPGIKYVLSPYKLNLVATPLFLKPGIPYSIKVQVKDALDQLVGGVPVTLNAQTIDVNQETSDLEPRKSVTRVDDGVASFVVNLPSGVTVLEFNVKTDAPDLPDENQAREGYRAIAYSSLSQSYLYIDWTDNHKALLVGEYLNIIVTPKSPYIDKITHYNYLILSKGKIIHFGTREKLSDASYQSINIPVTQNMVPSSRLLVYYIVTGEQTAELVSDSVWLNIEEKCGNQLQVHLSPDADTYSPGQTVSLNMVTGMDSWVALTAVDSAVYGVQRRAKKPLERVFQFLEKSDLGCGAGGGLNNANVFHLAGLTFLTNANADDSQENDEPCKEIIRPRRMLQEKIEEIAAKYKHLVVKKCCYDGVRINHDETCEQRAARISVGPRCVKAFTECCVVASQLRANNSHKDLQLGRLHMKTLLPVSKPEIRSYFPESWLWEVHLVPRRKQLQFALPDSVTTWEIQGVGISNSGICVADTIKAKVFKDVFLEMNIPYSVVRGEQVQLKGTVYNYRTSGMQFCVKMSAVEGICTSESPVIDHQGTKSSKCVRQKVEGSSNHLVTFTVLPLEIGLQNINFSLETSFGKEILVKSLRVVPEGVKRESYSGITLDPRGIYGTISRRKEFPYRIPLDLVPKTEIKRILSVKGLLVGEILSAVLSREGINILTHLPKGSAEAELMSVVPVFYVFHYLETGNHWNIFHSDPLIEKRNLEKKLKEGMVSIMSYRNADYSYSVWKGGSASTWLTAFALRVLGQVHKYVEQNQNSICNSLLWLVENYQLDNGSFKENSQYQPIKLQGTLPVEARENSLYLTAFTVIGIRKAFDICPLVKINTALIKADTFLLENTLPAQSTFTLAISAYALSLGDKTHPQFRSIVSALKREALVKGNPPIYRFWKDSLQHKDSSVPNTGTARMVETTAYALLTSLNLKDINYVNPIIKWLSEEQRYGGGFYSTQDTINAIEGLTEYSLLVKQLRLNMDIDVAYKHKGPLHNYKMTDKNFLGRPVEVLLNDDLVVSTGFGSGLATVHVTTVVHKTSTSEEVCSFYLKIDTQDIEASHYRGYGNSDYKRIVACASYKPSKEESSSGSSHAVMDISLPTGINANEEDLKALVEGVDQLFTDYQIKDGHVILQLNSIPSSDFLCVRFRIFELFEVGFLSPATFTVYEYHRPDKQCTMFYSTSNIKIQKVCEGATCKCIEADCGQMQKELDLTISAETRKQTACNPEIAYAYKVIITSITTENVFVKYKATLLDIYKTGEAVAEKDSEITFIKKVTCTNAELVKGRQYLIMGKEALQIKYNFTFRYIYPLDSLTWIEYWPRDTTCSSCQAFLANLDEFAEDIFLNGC
Description: SPR, pH 7.4, 37C.

A further assay addresses C5-D51A (human). Description: other, Western blot. For orientation: In western blotting, separated proteins are transferred to a membrane and probed.
The next assay has as its target C5-K109A (human). Kind of assay: other, Western blot.

B1: CFA0305 (antibody, V domains shown)
VH: QSLEESGGDLVKPGASLAVTCTASGFSSSSSYYMCWVRQAPGKGLEWIGCIYTGSGATYYASWAKGRFTISKTSSTTVTLQMTSLTVADTATYFCASDGGYVTPTHAMYLWGPGTLVTVSS
VL: DVVMTQTPASVSAAVGGTVTIKCQASQNIGSDLAWYQQKPGQPPRLLIYGASKLASGVSSRFSGSGSGKEFTLTISDLECADAVTYYCQCTFVGSSYGNAFGGGTEVVVK
On to B1, for which the Kd (usually a measure of binding affinity in units of concentration) was determined as 15.4 nM with human C5 [1], 430 nM in the assay with human C5 [2] and 5.54 nM in the assay with cynomolgus C5. Further, the binding result with C5-D51A and with C5-K109A was “no binding” throughout.
